Test results taken from the supplement of paper PMC10126150.
± gives the standard deviation of the averaged measurements.

System: ATP
Experiment: switch fluorescence ratio, 500 uM ATP over buffer (Cy3 cluster intensity, sum of 5 cycles each) (fold (ratio)); higher = stronger signal-on switching upon ATP binding; sequences stand for … in TCGTCGGCAGCGTCAGATGTGTATAAGAGACAGTTTTTTTTTTTTTTTTTTTTTTTTT…TC
Settings: aptamer strand: ATP DNA aptamer (quencher-CACCTGGGGGAGTATTGCGGAGGAAGG + anchor), 100 nM annealed; ATP concentration: 500 uM
Summary of the method: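 Values give the fluorescence ratio for each switch-domain sequence, averaged from per-cluster ratios of summed target-cycle to summed buffer-cycle Cy3 intensity. The Cy3-labelled switching-strand clusters sat on a modified Illumina MiSeq flow-cell, were annealed to 100 nM quencher-labelled ATP aptamer, and were imaged in selection buffer, then after 15 min with 500 uM ATP at 22 °C. Five cycles ran with NaOH stripping and re-annealing between them, and clusters outside 100-1000 RFU were excluded.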
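Further: ATP exposure 15 min at 22 °C before imaging.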

Sequence | switch fluorescence ratio
AACGTTAAAT | 1.01 ± 0.037
AACGTTAGGG | 0.998 ± 0.029
AACGTTCCTG | 1.35 ± 0.11
AACGTTGGTA | 0.989 ± 0.034
AACTAATCGC | 1.03 ± 0.029
AACTACTTTG | 1 ± 0.03
AACTAGAGTT | 0.99 ± 0.014
AACTATAAAA | 1 ± 0.014
AACTATCTTT | 1.04 ± 0.033
AACTATGATG | 0.996 ± 0.03
AACTATGGTA | 0.992 ± 0.033
AACTCACTTT | 1.09 ± 0.02
AACTCAGATT | 1.01 ± 0.026
AACTCAGGGG | 1.29 ± 0.067
AACTCATATT | 0.959 ± 0.013
AACTCGACCC | 1.05 ± 0.05
AACTGACGGA | 1.14 ± 0.026
AACTGCAAGT | 0.993 ± 0.027
AACTGCTGTA | 0.999 ± 0.02
AACTGGACTT | 1.11 ± 0.042
AACTGGGAGA | 0.98933 ± 0.0002
AACTGGGGA | 0.967 ± 0.015
AACTGGGGC | 0.959 ± 0.062

Sequence | switch fluorescence ratio
AACTGGTTG | 0.9804 ± 0.009
AACTTGGGGA | 0.9657 ± 0.0061
AACTTGTCGA | 0.886 ± 0.047
AACTTTGACC | 1.034 ± 0.0014
AACTTTGTTT | 0.9832 ± 0.0047
AAGAAAAAGG | 0.993 ± 0.036
AAGAAACACA | 1.02 ± 0.038
AAGAAACTTC | 1.007 ± 0.0024
AAGAAATCTC | 1.04 ± 0.11
AAGAAATTAC | 1.06 ± 0.028
AAGAACTATA | 1.09 ± 0.023
AAGAAGATCA | 0.975 ± 0.016
AAGAAGGCGG | 0.9845 ± 0.0069
AAGAAGGGAT | 0.953 ± 0.016
AAGAATATTT | 1.01 ± 0.012
AAGACAGTGC | 0.9932 ± 0.0059
AAGACCGGGA | 1.01 ± 0.04
AAGACGGATT | 0.9945 ± 0.0066
AAGACGGGCT | 1.01 ± 0.037
AAGACTTGGG | 1.05 ± 0.029
AAGAGACCTT | 1.28 ± 0.026
AAGAGAGGTG | 1.07 ± 0.014
AAGAGATATA | 1.008 ± 0.0037

Sequence | switch fluorescence ratio
AAGAGCGAGT | 1 ± 0.011
AAGAGCGGGA | 0.989 ± 0.041
AAGAGCGGTG | 0.952 ± 0.0049
AAGAGGAAGG | 0.9709 ± 0.0027
AAGAGGACGA | 1.01 ± 0.028
AAGAGGAGCG | 0.9668 ± 0.0078
AAGAGGCGCT | 0.995 ± 0.05
AAGAGGCGGG | 1 ± 0.019
AAGAGGGATT | 0.983 ± 0.03
AAGAGGGCAT | 1.01 ± 0.022
AAGAGGGGGG | 0.999 ± 0.053
AAGAGGTGTT | 1.04 ± 0.071
AAGAGTTGCC | 1.07 ± 0.12
AAGATAACGG | 1.07 ± 0.048
AAGATAATAG | 0.993 ± 0.024
AAGATAGAAA | 1.01 ± 0.013
AAGATATGAT | 0.989 ± 0.032
AAGATCATAA | 0.994 ± 0.019
AAGATGGTCA | 0.993 ± 0.036
AAGATGTTGG | 1.01 ± 0.04
AAGATTGGTG | 0.991 ± 0.041
AAGATTGTTT | 0.986 ± 0.033
AAGCAGCCGG | 0.99 ± 0.046

Sequence | switch fluorescence ratio
AAGCAGCTGT | 1.01 ± 0.034
AAGCAGTAGC | 1.05 ± 0.0043
AAGCATCATT | 1.0176 ± 0.00039
AAGCATGCTC | 1.09 ± 0.03
AAGCCCGGGG | 1.02 ± 0.025
AAGCCCTAGC | 0.976 ± 0.036
AAGCCGTGTG | 0.988 ± 0.042
AAGCCTTAAA | 1.06 ± 0.011
AAGCGAGGTC | 1.05 ± 0.021
AAGCGCCCGG | 1.05 ± 0.04
AAGCGGAGGG | 1.02 ± 0.062
AAGCGGGGAC | 1.07 ± 0.013
AAGCGGGTTT | 0.96 ± 0.03
AAGCGTGGGA | 1.02 ± 0.039
AAGCGTGGGG | 1.02 ± 0.025
AAGCGTTGTG | 0.9984 ± 0.008
AAGCTCCTCT | 1.03 ± 0.032
AAGCTGAGAA | 1.016 ± 0.0071
AAGCTTCGGG | 1.06 ± 0.029
AAGCTTTGTG | 0.9786 ± 0.0076
AAGGAAGGGG | 1.14 ± 0.2
AAGGAAGTGG | 0.99 ± 0.022
AAGGAATAGG | 0.98 ± 0.016

Sequence | switch fluorescence ratio
AAGGACAGGA | 1.03 ± 0.026
AAGGACGCCT | 1.03 ± 0.0041
AAGGAGACTA | 1.02 ± 0.05
AAGGAGAGTG | 0.991 ± 0.028
AAGGAGGGAT | 1 ± 0.036
AAGGAGTTGC | 0.9733 ± 0.0062
AAGGATAGAT | 0.985 ± 0.025
AAGGATAGGC | 1 ± 0.013
AAGGATGGGG | 0.98 ± 0.022
AAGGATGTAT | 0.969 ± 0.036
AAGGATTATG | 1 ± 0.07
AAGGATTATT | 0.97 ± 0.024
AAGGCAGGCG | 0.977 ± 0.096
AAGGCATCAG | 0.9915 ± 0.0045
AAGGCGAGGT | 0.994 ± 0.022
AAGGCGCGTG | 1.01 ± 0.045
AAGGCGTGAG | 1.02 ± 0.016
AAGGCTAGGA | 1 ± 0.036
AAGGCTGATG | 0.983 ± 0.017
AAGGCTGTGT | 1.001 ± 0.0095
AAGGCTTGAT | 0.9998 ± 0.0081
AAGGCTTTTT | 0.9935 ± 0.0077
AAGGGAACAA | 0.999 ± 0.048

Sequence | switch fluorescence ratio
AAGGGAAGTG | 0.982 ± 0.069
AAGGGAATTT | 1.17 ± 0.36
AAGGGAGGCG | 1.14 ± 0.2
AAGGGAGGGG | 0.987 ± 0.028
AAGGGAGGTT | 1 ± 0.027
AAGGGATGCT | 1 ± 0.011
AAGGGCCGGG | 0.967 ± 0.029
AAGGGCCTGC | 0.9723 ± 0.0039
AAGGGCGTCA | 1.007 ± 0.0022
AAGGGCTTCA | 1.031 ± 0.0074
AAGGGGAAGT | 0.987 ± 0.038
AAGGGGACAC | 1.02 ± 0.014
AAGGGGAGTT | 0.998 ± 0.028
AAGGGGCGAT | 0.98751 ± 0.00098
AAGGGGCTTT | 1.01 ± 0.025
AAGGGGGACT | 1.04 ± 0.039
AAGGGGGCTA | 0.974 ± 0.027
AAGGGGGTGT | 0.965 ± 0.026
AAGGGGTAGG | 0.986 ± 0.036
AAGGGGTAGT | 0.997 ± 0.025
AAGGGGTCGT | 1 ± 0.025
AAGGGGTGAA | 0.989 ± 0.017
AAGGGGTGGG | 1.02 ± 0.032

Sequence | switch fluorescence ratio
AAGGGGTGTG | 0.998 ± 0.013
AAGGGTAAGC | 0.981 ± 0.029
AAGGGTATGC | 1 ± 0.035
AAGGGTCGAT | 0.968 ± 0.016
AAGGGTTAGG | 1.03 ± 0.023
AAGGTAATTT | 1.01 ± 0.03
AAGGTACAAG | 1.06 ± 0.047
AAGGTAGAAA | 1.03 ± 0.016
AAGGTAGAAT | 0.986 ± 0.013
AAGGTAGGGG | 0.986 ± 0.018
AAGGTATTAG | 0.9926 ± 0.0055
AAGGTCATTA | 0.97235 ± 0.00041
AAGGTCCTCT | 1 ± 0.004
AAGGTGAAGG | 1.02 ± 0.035
AAGGTGAGGT | 1.038 ± 0.006
AAGGTGTTGT | 1.04 ± 0.066
AAGGTTCGAA | 1.023 ± 0.0033
AAGGTTGAAC | 0.979 ± 0.011
AAGGTTGACC | 1.01 ± 0.021
